Assay results: the supplement of paper PMC10126150
± gives the standard deviation of the averaged measurements.

System: ATP
Test: switch fluorescence ratio, 500 uM ATP over buffer (Cy3 cluster intensity, sum of 5 cycles each) (fold (ratio)); higher = stronger signal-on switching upon ATP binding; sequences stand for … in TCGTCGGCAGCGTCAGATGTGTATAAGAGACAGTTTTTTTTTTTTTTTTTTTTTTTTT…TC
Conditions: aptamer strand: ATP DNA aptamer (quencher-CACCTGGGGGAGTATTGCGGAGGAAGG + anchor), 100 nM annealed; ATP concentration: 500 uM
In short: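 Five buffer/ATP imaging cycles were run on Cy3-labelled switching-strand clusters on a modified Illumina MiSeq flow-cell, with NaOH stripping and re-annealing between cycles. In each cycle, clusters annealed to 100 nM quencher-labelled ATP aptamer were imaged in selection buffer, then after 15 min with 500 uM ATP at 22 °C. Per cluster, the fluorescence ratio is summed target-cycle over summed buffer-cycle Cy3 intensity, averaged per switch-domain sequence. Only clusters within 100-1000 RFU were kept.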
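Further: ATP exposure 15 min at 22 °C before imaging.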

Sequence	switch fluorescence ratio
TTTCCTTTGG	1.01 ± 0.032
TTTCGAAAGG	0.983 ± 0.043
TTTCGAAGGG	1.04 ± 0.07
TTTCGAGAAG	1.05 ± 0.054
TTTCGAGGAC	0.983 ± 0.011
TTTCGATGTT	0.95 ± 0.051
TTTCGATTTT	0.993 ± 0.04
TTTCGCCATT	1.3 ± 0.46
TTTCGGAATT	1.35 ± 0.48
TTTCGGCTTT	1.24 ± 0.3
TTTCGGGACT	1.03 ± 0.048
TTTCGGGGCA	1.02 ± 0.034
TTTCGGGGTG	1.09 ± 0.17
TTTCGGGTAT	1.05 ± 0.011
TTTCGGGTTG	1.02 ± 0.042
TTTCGGGTTT	0.989 ± 0.028
TTTCGGTAAA	1.026 ± 0.0039
TTTCGGTGTT	0.981 ± 0.041
TTTCGGTTCT	0.991 ± 0.012
TTTCGGTTGG	0.999 ± 0.032
TTTCGGTTGT	1 ± 0.022
TTTCGTACGG	1.03 ± 0.087

Sequence	switch fluorescence ratio
TTTCGTATTG	0.991 ± 0.02
TTTCGTCAGG	0.997 ± 0.038
TTTCGTCATG	1.03 ± 0.065
TTTCGTGCTT	1.02 ± 0.032
TTTCGTGGCA	1.02 ± 0.066
TTTCGTGGTC	1.02 ± 0.015
TTTCGTGTAG	1 ± 0.032
TTTCGTTCGC	1.302 ± 0.013
TTTCGTTGTA	0.973 ± 0.001
TTTCTAACTC	1 ± 0.053
TTTCTACTCG	0.995 ± 0.017
TTTCTAGTGG	0.999 ± 0.03
TTTCTATACG	1.02 ± 0.031
TTTCTATATA	1 ± 0.052
TTTCTCGTAA	1.58 ± 0.55
TTTCTGATTT	0.983 ± 0.022
TTTCTGCAGC	1.24 ± 0.14
TTTCTGGCTT	1.02 ± 0.051
TTTCTGGTT	1.01 ± 0.038
TTTCTTAGTG	0.9622 ± 0.0086
TTTCTTGGGA	1 ± 0.059
TTTCTTTAGT	1 ± 0.04

Sequence	switch fluorescence ratio
TTTCTTTCAA	1.01 ± 0.021
TTTCTTTGAT	0.998 ± 0.029
TTTCTTTGCA	1.058 ± 0.0081
TTTCTTTTGG	1.1 ± 0.09
TTTGAA	0.9556 ± 0.0024
TTTGAAAAGG	1.01 ± 0.039
TTTGAACTGT	1.18 ± 0.14
TTTGAACTTG	1.01 ± 0.024
TTTGAAGGTA	1.01 ± 0.025
TTTGAATGGG	0.985 ± 0.029
TTTGACATGG	0.955 ± 0.029
TTTGACGCAT	1.6 ± 0.67
TTTGACGGGC	1.05 ± 0.032
TTTGACTTTC	1.07 ± 0.025
TTTGAGAATC	0.977 ± 0.017
TTTGAGAGCT	0.977 ± 0.014
TTTGAGAGTT	1.03 ± 0.058
TTTGAGCAGA	0.97 ± 0.02
TTTGAGCTGT	1.02 ± 0.042
TTTGAGGCCT	0.99 ± 0.025
TTTGAGGGTG	1.07 ± 0.065
TTTGAGGGTT	0.983 ± 0.026

Sequence	switch fluorescence ratio
TTTGAGGTCG	1.06 ± 0.063
TTTGAGGTCT	1.05 ± 0.072
TTTGAGTGGC	0.969 ± 0.041
TTTGAGTGGT	0.993 ± 0.013
TTTGAGTGTG	0.997 ± 0.03
TTTGAGTGTT	0.985 ± 0.011
TTTGAGTTTT	0.989 ± 0.034
TTTGATAAAA	0.972 ± 0.039
TTTGATATAA	0.991 ± 0.031
TTTGATCACG	1.02 ± 0.031
TTTGATCGGG	0.978 ± 0.015
TTTGATGGGT	0.993 ± 0.048
TTTGATGGTT	1.01 ± 0.011
TTTGATGTGC	1.07 ± 0.064
TTTGATGTTG	0.976 ± 0.033
TTTGATTTAG	0.989 ± 0.026
TTTGCAAATT	1.03 ± 0.039
TTTGCAAGTA	1.2 ± 0.3
TTTGCAATAA	2.35 ± 1.7
